Measured values as given in the supplement of paper PMC10065799, “High-throughput profiling of sequence recognition by tyrosine kinases and SH2 domains using bacterial peptide display” (eLife, 2023).

Experiments:
SHP2-C SH2 = assay: SH2 binding enrichment of the phosphorylated peptide, bacterial display (enrichment ratio); higher = better substrate or ligand; peptides without Tyr show the background
Grb2 SH2 = Grb2 SH2 (UniProt P62993); assay: as above
c-Src SH2 = assay: as above
FGFR3 = FGFR3 (UniProt P22607); assay: phosphorylation enrichment, bacterial display (enrichment ratio); higher = better substrate or ligand; peptides without Tyr show the background
FGFR3, sequence (P22607 whole entry, looked up): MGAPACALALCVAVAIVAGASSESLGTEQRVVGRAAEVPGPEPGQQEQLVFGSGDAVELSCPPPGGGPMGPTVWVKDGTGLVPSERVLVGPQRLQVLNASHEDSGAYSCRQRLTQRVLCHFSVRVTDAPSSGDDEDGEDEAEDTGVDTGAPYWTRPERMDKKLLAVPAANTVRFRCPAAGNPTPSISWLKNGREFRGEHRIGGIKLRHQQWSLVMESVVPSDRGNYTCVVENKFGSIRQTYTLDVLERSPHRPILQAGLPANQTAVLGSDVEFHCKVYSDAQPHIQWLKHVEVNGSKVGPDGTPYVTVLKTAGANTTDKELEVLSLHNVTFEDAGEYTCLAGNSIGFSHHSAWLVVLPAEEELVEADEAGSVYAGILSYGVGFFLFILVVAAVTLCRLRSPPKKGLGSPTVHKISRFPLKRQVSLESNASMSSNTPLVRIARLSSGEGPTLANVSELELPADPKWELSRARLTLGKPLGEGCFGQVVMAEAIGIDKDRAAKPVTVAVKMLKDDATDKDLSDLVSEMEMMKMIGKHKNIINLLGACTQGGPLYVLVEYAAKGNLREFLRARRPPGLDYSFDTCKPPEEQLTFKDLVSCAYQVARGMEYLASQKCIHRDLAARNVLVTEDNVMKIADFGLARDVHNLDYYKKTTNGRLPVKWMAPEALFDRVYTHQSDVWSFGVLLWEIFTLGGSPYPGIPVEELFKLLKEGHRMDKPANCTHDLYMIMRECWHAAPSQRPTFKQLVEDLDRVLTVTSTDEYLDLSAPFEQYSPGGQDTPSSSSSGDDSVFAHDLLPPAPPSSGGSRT

Hck = Hck (UniProt P08631); assay: as above
Hck, sequence (P08631 whole entry, looked up): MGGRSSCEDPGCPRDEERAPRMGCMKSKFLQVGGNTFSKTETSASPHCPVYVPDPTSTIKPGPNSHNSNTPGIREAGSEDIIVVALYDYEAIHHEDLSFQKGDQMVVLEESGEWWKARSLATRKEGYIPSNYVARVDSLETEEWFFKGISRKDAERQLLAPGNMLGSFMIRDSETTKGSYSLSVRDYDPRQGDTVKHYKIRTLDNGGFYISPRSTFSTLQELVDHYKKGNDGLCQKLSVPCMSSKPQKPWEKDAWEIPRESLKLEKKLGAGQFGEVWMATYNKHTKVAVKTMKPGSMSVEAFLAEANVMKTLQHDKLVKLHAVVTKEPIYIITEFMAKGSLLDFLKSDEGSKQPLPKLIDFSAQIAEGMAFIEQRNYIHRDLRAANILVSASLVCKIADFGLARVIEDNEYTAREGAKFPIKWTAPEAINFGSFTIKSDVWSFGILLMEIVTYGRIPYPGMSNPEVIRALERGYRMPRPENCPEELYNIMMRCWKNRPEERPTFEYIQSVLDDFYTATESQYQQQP

c-Abl (mouse) = assay: as above
AncSZ = assay: as above
Jak2 = Jak2 (UniProt O60674); assay: as above
Jak2, sequence (O60674 whole entry, looked up): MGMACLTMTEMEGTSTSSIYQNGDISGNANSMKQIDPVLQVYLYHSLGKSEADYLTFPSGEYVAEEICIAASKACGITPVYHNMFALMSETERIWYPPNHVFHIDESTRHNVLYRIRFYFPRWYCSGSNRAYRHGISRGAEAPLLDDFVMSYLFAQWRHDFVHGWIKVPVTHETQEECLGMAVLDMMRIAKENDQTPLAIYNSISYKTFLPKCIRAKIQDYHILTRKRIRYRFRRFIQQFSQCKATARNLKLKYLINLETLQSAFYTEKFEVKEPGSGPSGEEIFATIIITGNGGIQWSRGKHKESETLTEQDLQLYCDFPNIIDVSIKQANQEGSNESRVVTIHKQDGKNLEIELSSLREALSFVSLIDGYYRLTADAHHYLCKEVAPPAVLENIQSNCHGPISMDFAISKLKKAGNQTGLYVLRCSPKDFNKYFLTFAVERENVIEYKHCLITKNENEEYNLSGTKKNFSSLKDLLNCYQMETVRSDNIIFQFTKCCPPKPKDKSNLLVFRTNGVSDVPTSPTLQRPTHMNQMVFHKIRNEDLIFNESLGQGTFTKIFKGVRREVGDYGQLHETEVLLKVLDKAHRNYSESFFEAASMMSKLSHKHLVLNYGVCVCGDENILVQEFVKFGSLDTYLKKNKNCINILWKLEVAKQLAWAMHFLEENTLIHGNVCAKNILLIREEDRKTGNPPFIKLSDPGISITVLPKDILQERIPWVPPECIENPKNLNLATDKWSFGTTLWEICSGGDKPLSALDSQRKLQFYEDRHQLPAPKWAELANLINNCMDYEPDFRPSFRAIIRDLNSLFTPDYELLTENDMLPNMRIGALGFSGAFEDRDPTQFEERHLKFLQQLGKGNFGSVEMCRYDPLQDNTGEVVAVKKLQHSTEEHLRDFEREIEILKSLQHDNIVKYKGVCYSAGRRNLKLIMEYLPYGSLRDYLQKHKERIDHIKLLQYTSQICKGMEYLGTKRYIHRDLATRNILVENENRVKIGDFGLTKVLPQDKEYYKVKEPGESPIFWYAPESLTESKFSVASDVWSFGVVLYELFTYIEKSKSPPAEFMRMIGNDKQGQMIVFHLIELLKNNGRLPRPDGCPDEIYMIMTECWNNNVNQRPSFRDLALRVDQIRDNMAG

MERTK = MERTK (UniProt Q12866); assay: as above
Fes = Fes (UniProt P07332); assay: as above
c-Src = assay: as above
EPHB1 = EPHB1 (UniProt P54762); assay: as above
FGFR1 = FGFR1 (UniProt P11362); assay: as above
FGFR1, sequence (P11362 whole entry, looked up): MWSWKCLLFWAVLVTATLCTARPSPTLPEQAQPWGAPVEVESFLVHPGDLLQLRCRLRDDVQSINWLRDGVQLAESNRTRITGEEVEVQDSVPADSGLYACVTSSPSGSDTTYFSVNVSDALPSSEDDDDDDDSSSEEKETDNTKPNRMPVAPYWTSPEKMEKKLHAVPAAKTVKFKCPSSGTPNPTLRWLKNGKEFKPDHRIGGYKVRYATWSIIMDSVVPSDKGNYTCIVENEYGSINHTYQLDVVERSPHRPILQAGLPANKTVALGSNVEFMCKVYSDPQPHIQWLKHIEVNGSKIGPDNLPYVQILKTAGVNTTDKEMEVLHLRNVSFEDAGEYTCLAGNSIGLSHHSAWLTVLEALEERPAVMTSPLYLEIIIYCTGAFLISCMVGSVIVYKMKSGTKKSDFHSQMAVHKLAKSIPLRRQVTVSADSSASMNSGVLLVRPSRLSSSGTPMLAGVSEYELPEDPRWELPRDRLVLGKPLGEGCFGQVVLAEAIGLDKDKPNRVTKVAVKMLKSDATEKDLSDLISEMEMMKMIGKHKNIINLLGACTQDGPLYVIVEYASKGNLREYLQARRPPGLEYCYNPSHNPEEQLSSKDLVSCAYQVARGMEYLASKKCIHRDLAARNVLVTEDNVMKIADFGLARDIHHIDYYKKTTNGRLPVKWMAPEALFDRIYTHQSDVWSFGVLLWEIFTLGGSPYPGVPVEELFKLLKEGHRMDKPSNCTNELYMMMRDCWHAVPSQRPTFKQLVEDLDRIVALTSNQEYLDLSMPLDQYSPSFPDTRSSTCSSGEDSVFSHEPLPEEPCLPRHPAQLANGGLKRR

Fer (mouse) = assay: as above
Fyn = Fyn (UniProt P06241); assay: as above
Fyn, sequence (P06241 whole entry, looked up): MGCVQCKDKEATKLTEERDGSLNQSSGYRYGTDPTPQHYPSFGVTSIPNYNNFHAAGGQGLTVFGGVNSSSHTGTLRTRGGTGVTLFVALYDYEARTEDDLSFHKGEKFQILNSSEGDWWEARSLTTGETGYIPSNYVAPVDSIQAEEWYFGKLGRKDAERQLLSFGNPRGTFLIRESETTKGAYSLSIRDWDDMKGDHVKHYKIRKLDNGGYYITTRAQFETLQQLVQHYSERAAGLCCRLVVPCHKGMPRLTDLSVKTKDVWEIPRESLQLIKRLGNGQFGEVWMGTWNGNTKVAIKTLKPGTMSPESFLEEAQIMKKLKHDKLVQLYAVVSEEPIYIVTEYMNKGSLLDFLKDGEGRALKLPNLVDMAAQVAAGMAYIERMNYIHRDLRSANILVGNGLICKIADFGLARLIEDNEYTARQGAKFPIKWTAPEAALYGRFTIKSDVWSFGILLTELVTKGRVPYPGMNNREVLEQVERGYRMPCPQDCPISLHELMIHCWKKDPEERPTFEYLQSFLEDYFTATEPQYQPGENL

EPHB2 = EPHB2 (UniProt P29323); assay: as above
EPHB2, sequence (P29323 whole entry, looked up, the tested form may be a part): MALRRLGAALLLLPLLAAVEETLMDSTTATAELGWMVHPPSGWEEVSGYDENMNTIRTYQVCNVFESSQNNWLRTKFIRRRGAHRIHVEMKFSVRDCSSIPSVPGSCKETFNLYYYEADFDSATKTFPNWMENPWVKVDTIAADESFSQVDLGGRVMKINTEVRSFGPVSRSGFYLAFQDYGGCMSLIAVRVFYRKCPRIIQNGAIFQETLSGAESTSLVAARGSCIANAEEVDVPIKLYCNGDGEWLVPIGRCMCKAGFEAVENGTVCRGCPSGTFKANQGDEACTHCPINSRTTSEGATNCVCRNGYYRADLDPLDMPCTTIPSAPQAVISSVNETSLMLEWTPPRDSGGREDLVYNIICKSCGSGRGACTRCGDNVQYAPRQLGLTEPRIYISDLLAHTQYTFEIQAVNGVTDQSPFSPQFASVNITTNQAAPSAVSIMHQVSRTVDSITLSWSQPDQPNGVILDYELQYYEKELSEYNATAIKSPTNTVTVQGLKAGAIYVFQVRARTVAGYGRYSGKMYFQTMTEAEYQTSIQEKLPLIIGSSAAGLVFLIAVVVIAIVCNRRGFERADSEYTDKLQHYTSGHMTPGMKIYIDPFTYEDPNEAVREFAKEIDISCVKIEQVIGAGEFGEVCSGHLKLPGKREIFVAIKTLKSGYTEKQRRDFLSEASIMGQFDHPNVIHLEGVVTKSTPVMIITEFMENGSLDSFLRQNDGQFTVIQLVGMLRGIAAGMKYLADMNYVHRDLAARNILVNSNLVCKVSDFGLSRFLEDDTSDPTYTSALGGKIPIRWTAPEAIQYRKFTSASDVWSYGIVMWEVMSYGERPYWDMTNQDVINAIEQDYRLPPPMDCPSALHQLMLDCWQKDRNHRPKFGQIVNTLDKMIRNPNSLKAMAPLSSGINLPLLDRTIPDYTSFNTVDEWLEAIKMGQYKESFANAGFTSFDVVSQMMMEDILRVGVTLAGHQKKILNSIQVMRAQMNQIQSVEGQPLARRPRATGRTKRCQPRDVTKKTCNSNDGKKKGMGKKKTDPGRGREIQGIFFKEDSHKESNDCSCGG
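Wherever SH2 binding enrichment of the phosphorylated peptide, bacterial display is given: peptide library displayed on the E. coli surface as eCPX fusions, selected cells deep-sequenced, score is each peptide's frequency after selection divided by its frequency in the input.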
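Wherever phosphorylation enrichment, bacterial display is given: 11-residue human phosphosite peptides and single-mutation variants displayed on the E. coli surface, counted by deep sequencing, each peptide's frequency after selection divided by its frequency in the unselected input library; frequency after pTyr selection over input frequency; kinase dosed for 20-30% of maximal phosphorylation in three min.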

Row | Sequence | SH2 binding enrichment (SHP2-C SH2) | SH2 binding enrichment (Grb2 SH2) | SH2 binding enrichment (c-Src SH2) | phosphorylation enrichment (FGFR3) | phosphorylation enrichment (Hck) | phosphorylation enrichment (c-Abl (mouse)) | phosphorylation enrichment (AncSZ) | phosphorylation enrichment (Jak2) | phosphorylation enrichment (MERTK) | phosphorylation enrichment (Fes) | phosphorylation enrichment (c-Src) | phosphorylation enrichment (EPHB1) | phosphorylation enrichment (FGFR1) | phosphorylation enrichment (Fer (mouse)) | phosphorylation enrichment (Fyn) | phosphorylation enrichment (EPHB2)
1 | GFEVVYMTEPI [HSP90AB1_Y512] | 0.694 | 0.85 | 0.605 | 0.879 | 0.668 | 0.693 | 1.37 | 1.4 | 0.405 | 1.34 | 0.8 | 0.527 | 0.625 | 0.403 | 0.557 | 0.537
2 | QRKPSYNQLAS [BRCA2_Y71] | 1.14 | 1.59 | 1.06 | 0.642 | 0.345 | 0.471 | 0.449 | 0.598 | 0.392 | 0.53 | 0.415 | 0.344 | 0.543 | 0.244 | 0.399 | 0.53
3 | KSVSQYLEMDK [CAGE1_Y438] | 0.528 | 0.873 | 1.9 | 0.537 | 0.391 | 1.05 | 0.748 | 0.907 | 0.38 | 0.803 | 0.406 | 0.422 | 0.46 | 0.424 | 0.414 | 0.406
4 | FVHDNYVIWRT [CPS1_Y1450_R1453W] | 0.847 | 1.11 | 0.827 | 1.8 | 1.26 | 1.14 | 1.28 | 1.11 | 1.45 | 1.16 | 0.721 | 6.57 | 2.79 | 1.26 | 0.577 | 7.37
5 | EEGESYVCSSD [DCX_Y125] | 0.839 | 1.08 | 0.793 | 0.945 | 0.694 | 0.924 | 1.31 | 1.21 | 0.58 | 1.41 | 0.603 | 0.814 | 0.676 | 0.799 | 0.56 | 0.792
6 | NLNGKYFKPRA [ANGPTL3_Y417_N418Y_YF] | 1.16 | 1.21 | 0.961 | 0.383 | 0.367 | 0.469 | 0.646 | 0.543 | 0.389 | 0.56 | 0.43 | 0.538 | 0.363 | 0.297 | 0.335 | 0.365
7 | MSDVPYVMNRG [ACAT1_Y161_N158D] | 0.617 | 1.11 | 0.452 | 0.501 | 0.358 | 0.549 | 0.669 | 0.652 | 0.348 | 0.68 | 0.439 | 0.4 | 0.403 | 0.42 | 0.316 | 0.452
8 | EKQARYEIVVE [CDH5_Y223] | 0.666 | 0.856 | 11 | 0.532 | 0.486 | 0.613 | 0.909 | 0.846 | 0.484 | 0.852 | 0.477 | 0.65 | 0.392 | 0.466 | 0.433 | 0.57
9 | RSHRSYSCQVM [IGLL1_Y192_R189H] | 0.993 | 1.29 | 1.16 | 0.671 | 0.559 | 0.594 | 0.609 | 0.57 | 0.526 | 0.941 | 0.604 | 0.696 | 0.637 | 0.416 | 0.508 | 0.512
10 | EFNLMYDGTKE [IRF6_Y97] | 1.21 | 0.883 | 0.489 | 0.603 | 0.595 | 0.705 | 0.993 | 1.03 | 0.446 | 1.14 | 0.597 | 0.447 | 0.498 | 0.479 | 0.536 | 0.462
11 | EVLKNYNQQKD [GOLGA4_Y1551] | 0.669 | 0.608 | 0.32 | 0.702 | 0.452 | 0.717 | 0.949 | 0.969 | 0.439 | 1.07 | 0.388 | 0.504 | 0.565 | 0.552 | 0.443 | 0.505
12 | LGNIVYSSLCG [BCOR_Y90_P85L] | 1.44 | 0.778 | 0.551 | 1.54 | 6.67 | 2.48 | 2.1 | 2.02 | 2.66 | 2.15 | 5.82 | 1.47 | 1.05 | 1.74 | 4.98 | 1.39
13 | RFLERDIYNRE [HLA-DPB1_Y57_Y57D] | 0.882 | 1.08 | 0.877 | 2.92 | 10.7 | 0.787 | 2.71 | 0.764 | 1.26 | 2.16 | 1.8 | 1.74 | 1.18 | 1.85 | 5.19 | 1.48
14 | PTQLPYDHKWK [KIT_Y578_E583K] | 0.512 | 0.756 | 0.437 | 0.439 | 0.397 | 0.634 | 0.725 | 0.626 | 0.28 | 0.677 | 0.425 | 0.484 | 0.58 | 0.478 | 0.433 | 0.299

Further lines, with some results ahead:

Row | SH2 binding enrichment (SHP2-C SH2) | SH2 binding enrichment (Grb2 SH2) | SH2 binding enrichment (c-Src SH2) | Sequence | phosphorylation enrichment (FGFR3) | phosphorylation enrichment (Hck) | phosphorylation enrichment (c-Abl (mouse)) | phosphorylation enrichment (AncSZ) | phosphorylation enrichment (Jak2) | phosphorylation enrichment (MERTK) | phosphorylation enrichment (Fes) | phosphorylation enrichment (c-Src) | phosphorylation enrichment (EPHB1) | phosphorylation enrichment (FGFR1) | phosphorylation enrichment (Fer (mouse)) | phosphorylation enrichment (Fyn) | phosphorylation enrichment (EPHB2)
15 | 0.64 | 0.892 | 0.65 | TSESSYYKSLN [NGEF_Y288_A286S] | 0.651 | 0.496 | 0.499 | 0.76 | 0.771 | 0.564 | 0.817 | 0.518 | 0.55 | 0.64 | 0.482 | 0.469 | 0.668
16 | 0.74 | 0.799 | 0.492 | SGLDSYVRSLP [TRAPPC1_Y133_R129G] | 0.48 | 0.438 | 0.426 | 0.618 | 0.443 | 0.402 | 0.651 | 0.359 | 0.379 | 0.453 | 0.445 | 0.424 | 0.581
17 | 2.27 | 0.671 | 0.54 | ETKTPYTVILI [SBDS_Y128_R126T] | 0.794 | 0.569 | 0.651 | 0.999 | 0.961 | 0.534 | 1.22 | 0.485 | 0.543 | 0.592 | 1.06 | 0.483 | 0.637
18 | 0.801 | 0.765 | 0.417 | RPSRQYATRDV [SCAMP3_Y35_L38R] | 0.352 | 0.412 | 0.615 | 0.598 | 0.352 | 0.274 | 0.498 | 0.407 | 0.366 | 0.473 | 0.381 | 0.396 | 0.356
19 | 0.868 | 0.887 | 1.22 | HGEAFYSEVKP [PAK5_Y182_YF] | 2.49 | 4.38 | 1.02 | 1 | 0.609 | 9.01 | 1.04 | 2.27 | 2.01 | 3.57 | 12.3 | 2.95 | 1.37
20 | 0.551 | 0.769 | 0.268 | ALECLYRREKR [TEKT5_Y195_H196R] | 0.482 | 0.515 | 0.522 | 0.775 | 0.788 | 0.621 | 1.85 | 0.66 | 0.466 | 0.584 | 0.435 | 0.539 | 0.534
21 | 0.555 | 0.679 | 0.383 | PMQLPHDSTWE [PDGFRB_Y589_Y589H] | 1.23 | 0.78 | 1.61 | 2.22 | 1.34 | 0.531 | 1.96 | 0.628 | 0.829 | 0.66 | 0.737 | 0.582 | 0.776
22 | 0.637 | 0.68 | 0.472 | DKPENYRRLDI [VHL_Y175_V170D] | 0.467 | 0.442 | 0.39 | 0.647 | 0.551 | 0.402 | 0.657 | 0.418 | 0.388 | 0.558 | 0.452 | 0.46 | 0.412
23 | 14.2 | 0.893 | 4.66 | SKAYAYVHFDS [PABPC5_Y149_G146A] | 0.803 | 0.398 | 0.789 | 0.967 | 1.05 | 0.389 | 1.19 | 0.365 | 0.549 | 0.445 | 0.477 | 0.394 | 0.461
24 | 0.777 | 0.803 | 0.585 | VHVEVYDRPSP | 0.761 | 1.95 | 1.33 | 1.39 | 1.01 | 0.531 | 1.02 | 0.597 | 0.791 | 0.438 | 0.802 | 0.855 | 0.668
25 | 0.605 | 0.756 | 0.384 | FVPAAYVKKLD [SPTAN1_Y1020] | 0.767 | 0.445 | 0.651 | 0.791 | 0.731 | 0.356 | 0.89 | 0.49 | 0.43 | 0.505 | 0.348 | 0.43 | 0.472
26 | 0.417 | 0.854 | 0.712 | TTSQLYDAMPI [PDPK1_Y9_V12M] | 0.809 | 8.57 | 0.706 | 0.986 | 0.665 | 9.19 | 0.794 | 3.9 | 8.16 | 0.537 | 12.4 | 6.16 | 6.17
27 | 0.892 | 0.851 | 0.54 | QDDFSYPSRQM [LDLR_Y847_G844D_YF] | 0.704 | 0.575 | 0.609 | 0.791 | 0.674 | 0.497 | 0.826 | 0.403 | 0.549 | 0.425 | 0.492 | 0.414 | 0.575
28 | 0.519 | 0.836 | 0.56 | GFQPDYGQPAG [SYP_Y278_YF] | 0.483 | 0.728 | 0.509 | 0.583 | 0.554 | 0.404 | 0.686 | 0.294 | 0.443 | 0.478 | 0.206 | 0.435 | 0.431
29 | 0.633 | 0.665 | 0.409 | RTEAQYRFIFM [PTPN11_Y511_Q506R_YF] | 1.03 | 0.398 | 0.765 | 1.37 | 1.14 | 0.413 | 1.23 | 0.445 | 0.52 | 0.512 | 0.546 | 0.312 | 0.576
